Laboratory results taken from patent publication US20030119077A1.

Assays:
cytokeratin protein [1] = assay: cytokeratin immunocytochemistry (CAM5.2-FITC) on fixed PC-3 cells; percent of cells stained
cytokeratin protein [2] = assay: cytokeratin immunocytochemistry (CAM5.2-FITC) on fixed LNCaP cells; percent of cells stained
cytokeratin protein [3] = assay: cytokeratin immunocytochemistry (CAM5.2-FITC) on fixed TSU-PRI cells; percent of cells stained
cytokeratin protein [4] = assay: cytokeratin immunocytochemistry (CAM5.2-FITC) on fixed DUMS cells; percent of cells stained

Measured: Percentage of positive staining

FITC conjugated Anti-Cytokeratin (CAM5.2) monoclonal antibody (Becton-Dickinson, Cat. 347653)
100%: all assays above
